According to patent US20020119165A1 (University of Pennsylvania, published 2002):
Ends that are not written are not given here.

Biological target: T1, HveA(200t) (UniProt Q92956 39-200, limits assumed)
T1 construct: Immobilized on microtiter wells in all ELISAs; also called soluble form of HveA; HVEM; not shown: C-terminal histidine tag
T1 sequence (looked up): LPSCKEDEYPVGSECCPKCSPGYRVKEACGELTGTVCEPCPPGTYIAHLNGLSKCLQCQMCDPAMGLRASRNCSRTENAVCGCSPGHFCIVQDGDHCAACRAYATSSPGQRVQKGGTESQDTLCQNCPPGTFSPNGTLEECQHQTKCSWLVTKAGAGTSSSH
Test: inferred from competition ELISA on immobilized HveA

B1: BP-2 (3, 9 Ala) (peptide)
peptide: GSADGFRVAYMH
modifications: not fully specified (C-terminus)
notes: Linear analog of BP-2 in which the two cysteine residues are replaced by alanine; also called linear form of BP-2
binding result: no binding
